From publication PMC5331437, “Synthesis of Mono- and Di-Glucosides of Zearalenone and α-/β-Zearalenol by Recombinant Barley Glucosyltransferase HvUGT14077” (Toxins, 2017)

Legend:
HvUGT14077 [1] = target: T1, HvUGT14077 (Hordeum vulgare, UniProt D3WYW3); assay: LC-MS/MS, steady state, sum of […]- and 16-glucosides, Haldane fit; set-up: gene UGT; conditions: read-out: Kinetic Constant / Km; 10 mM UDP-glucose; 100 mM Tris/Cl pH 7.5, 37 °C; apparent Km, substrate inhibition model
T1 sequence (D3WYW3 1-490): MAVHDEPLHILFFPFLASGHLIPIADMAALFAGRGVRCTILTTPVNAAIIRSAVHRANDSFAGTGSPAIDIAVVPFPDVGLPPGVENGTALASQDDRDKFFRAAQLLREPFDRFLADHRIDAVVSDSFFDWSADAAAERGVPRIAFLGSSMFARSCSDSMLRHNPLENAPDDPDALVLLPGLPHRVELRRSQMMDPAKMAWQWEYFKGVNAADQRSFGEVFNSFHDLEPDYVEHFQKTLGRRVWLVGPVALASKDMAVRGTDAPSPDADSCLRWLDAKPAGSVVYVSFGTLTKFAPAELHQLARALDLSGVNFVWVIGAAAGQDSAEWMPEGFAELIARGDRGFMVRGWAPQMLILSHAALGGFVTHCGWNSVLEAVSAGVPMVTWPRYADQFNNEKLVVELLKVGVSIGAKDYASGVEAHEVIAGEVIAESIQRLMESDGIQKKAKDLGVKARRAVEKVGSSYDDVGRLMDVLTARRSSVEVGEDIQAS

HvUGT14077 [2] = target: T1, HvUGT14077; assay: LC-MS/MS of glucoside formation; assay type: biochemical; set-up: gene UGT; nHis6-MalE-TEV-HvUGT14077 fusion (tags kept), E. coli BL21 (DE3), IMAC, predicted 97 kDa incl. tags
purified protein [3] = substrate: C[C@H]1CCC[C@H](O)CCC/C=C/c2cc(O)cc(O)c2C(=O)O1; assay: purified protein; conditions: 10 mM UDP-glucose, 100 mM Tris/Cl pH 7.5, 37 °C, apparent Km, substrate inhibition model
purified protein [4] = substrate: C[C@H]1CCC[C@@H](O)CCC/C=C/c2cc(O)cc(O)c2C(=O)O1; assay: purified protein; conditions: 10 mM UDP-glucose, 100 mM Tris/Cl pH 7.5, 37 °C, apparent Km, substrate inhibition model
purified protein [5] = substrate: O=c1ccn([C@@H]2O[C@H](CO[P@@](=O)(O)O[P@@](=O)(O)O[C@H]3O[C@H](CO)[C@@H](O)[C@H](O)[C@H]3O)[C@@H](O)[C@H]2O)c(=O)[nH]1; assay: purified protein; conditions: 25 µM zearalenone, 100 mM Tris/Cl pH 7.5, 37 °C

Q: For `C[C@H]1CCCC(=O)CCC/C=C/c2cc(O)cc(O)c2C(=O)O1` [ZEN, Zearalenone], which Km (HvUGT14077 [1]) is on record?
A: 3 ± 1 µM

Q: `O=c1ccn([C@@H]2O[C@H](COP(=O)(O)OP(=O)(O)O)[C@@H](O)[C@H]2O)c(=O)[nH]1` [UDP] was tested. Which IC50 (HvUGT14077 [2]) did it give?
A: 340 µM

B1: HvUGT14077 (Hordeum vulgare subsp. vulgare) (protein)
chain: T1 sequence (D3WYW3 1-490)
Q: Which Km (purified protein [3]) does the source give for B1 here?
A: 13 ± 2 µM

Q: What about the Vmax (purified protein [3]) of the same molecule?
A: 0.32 µmol/min/mg

Q: What about the kcat (purified protein [3]) of the same molecule?
A: 0.52 ± 0.05 s⁻¹

Q: And the kcat/Km (purified protein [3])?
A: 40000 M⁻¹ s⁻¹

Q: What about the Km (purified protein [4]) of the same molecule?
A: 27 ± 3 µM

Q: What about the Vmax (purified protein [4]) of the same molecule?
A: 1.2 µmol/min/mg

Q: And the kcat (purified protein [4])?
A: 2 ± 0.1 s⁻¹

Q: And the kcat/Km (purified protein [4])?
A: 74000 M⁻¹ s⁻¹

Q: And the Km (purified protein [5])?
A: 78 ± 9 µM
